Test [1] addresses V12.Pf1 recombinant HBc chimer particle (hepatitis B virus, subtype ayw; Plasmodium falciparum). Briefly: particle ELISA, end point titer dilution of MoAb 2A10. (An ELISA detects its analyte on a solid surface through an enzyme-linked reagent.)
The target of test [2] is V12.Pf3 recombinant HBc chimer particle (hepatitis B virus, subtype ayw; Plasmodium falciparum). Described as above.
The target in test [3] is V12.Pf3.1 recombinant HBc chimer particle (hepatitis B virus, subtype ayw; Plasmodium falciparum). The description is as above.
Test [4] concerns the target V12.Pf3.10 recombinant HBc chimer particle (hepatitis B virus, subtype ayw; Plasmodium falciparum). The test is described as above.
Test [5] concerns the target V12.Pf3.11 recombinant HBc chimer particle (hepatitis B virus, subtype ayw; Plasmodium falciparum). The description is as above.
The target of test [6] is V12.Pf3.12 recombinant HBc chimer particle (hepatitis B virus, subtype ayw; Plasmodium falciparum). Described as above.
Test [7] concerns the target V12.Pf3.2 recombinant HBc chimer particle (hepatitis B virus, subtype ayw; Plasmodium falciparum). The test is described as above.
The target of test [8] is V12.Pf3.3 recombinant HBc chimer particle (hepatitis B virus, subtype ayw; Plasmodium falciparum). The description is as above.
Test [9] addresses V12.Pf3.4 recombinant HBc chimer particle (hepatitis B virus, subtype ayw; Plasmodium falciparum). The description is as above.
Test [10] addresses V12.Pf3.5 recombinant HBc chimer particle (hepatitis B virus, subtype ayw; Plasmodium falciparum). Described as above.
Test [11] addresses V12.Pf3.6 recombinant HBc chimer particle (hepatitis B virus, subtype ayw; Plasmodium falciparum). The test is described as above.
Test [12] deals with V12.Pf3.8 recombinant HBc chimer particle (hepatitis B virus, subtype ayw; Plasmodium falciparum). The description is as above.
In test [13] the target is V12.Pf3.9 recombinant HBc chimer particle (hepatitis B virus, subtype ayw; Plasmodium falciparum). Described as above.
Test [14] addresses V12.Pf3.1 recombinant HBc chimer particle (hepatitis B virus, subtype ayw; Plasmodium falciparum). Briefly: particle ELISA, end point titer dilution of MoAb 2A10; reference V12.Pf3.

Turning to MoAb 2A10 (antibody), the Antigenicity (end point titer, normalized so that the lowest titer is 1) in test [1] was found to be 33 fold; in test [2], 165 fold; in test [3], 33 fold; in test [4], 1 fold; in test [5] it was 5 fold; in test [6], 5 fold. Moreover, the Antigenicity (end point titer, normalized so that the lowest titer is 1) came out at 33 fold in [7]; 5 fold in [8]; 5 fold in [9]; 5 fold in test [10]; 5 fold in test [11]; 5 fold in [12]. The Antigenicity (end point titer, normalized so that the lowest titer is 1) in test [13] came out at 5 fold. Also, the fold less antigenic than V12.Pf3 in [14] is 5 fold.

The record behind these values is patent US20030054337A1.
